In the supplement of paper PMC11246515:
± gives the standard deviation of the averaged measurements.

Assay: total protein half-life in vivo (active degradation + dilution); higher = more stable protein
[1] = E. coli NCM3722 delta-clpP delta-lon delta-hslV, growth: N-lim chemostat, doubling time 6 h
[2] = E. coli NCM3722 delta-clpP, growth: N-lim chemostat, doubling time 6 h
[3] = E. coli NCM3722 delta-hslV, growth: N-lim chemostat, doubling time 6 h
[4] = E. coli NCM3722 delta-lon, growth: N-lim chemostat, doubling time 6 h
[5] = E. coli NCM3722 delta-smpB, growth: N-lim chemostat, doubling time 6 h
[6] = wild type E. coli NCM3722, growth: C-lim chemostat, doubling time 3 h
[7] = wild type E. coli NCM3722, growth: C-lim chemostat, doubling time 6 h
[8] = wild type E. coli NCM3722, growth: C-lim chemostat, doubling time 12 h
[9] = wild type E. coli NCM3722, growth: N-lim chemostat, doubling time 6 h
[10] = wild type E. coli NCM3722, growth: N-lim chemostat, doubling time 12 h
[11] = wild type E. coli NCM3722, growth: P-lim chemostat, doubling time 6 h
[12] = wild type E. coli NCM3722, growth: P-lim chemostat, doubling time 12 h

Sequence	total protein half-life in vivo [1]	total protein half-life in vivo [2]	total protein half-life in vivo [3]	total protein half-life in vivo [4]	total protein half-life in vivo [5]	total protein half-life in vivo [6]	total protein half-life in vivo [7]	total protein half-life in vivo [8]	total protein half-life in vivo [9]	total protein half-life in vivo [10]	total protein half-life in vivo [11]	total protein half-life in vivo [12]
MTLTASSSSRAVTNSPVVVALDYHNRDDALAFVDKIDPRDCRLKVGKEMFTLFGPQFVRELQQRGFDIFLDLKFHDIPNTAAHAVAAAADLGVWMVNVHASGGARMMTAAREALVPFGKDAPLLIAVTVLTSMEASDLVDLGMTLSPADYAERLAALTQKCGLDGVVCSAQEAVRFKQVFGQEFKLVTPGIRPQGSEAGDQRRIMTPEQALSAGVDYMVIGRPVTQSVDPAQTLKAINASLQRSA	5.11 ± 0.11 h	6.25 ± 2.3 h	4.479 ± 0.025 h	5.08 ± 0.2 h	4.77 ± 0.33 h	2.89 ± 0.2 h	6.45 ± 1 h	9.6 ± 0.32 h	4.77 ± 0.15 h	8.44 ± 1.3 h	5.08 ± 0.49 h	10.2 ± 0.27 h
MMEFILSHVEKGVMTLTLNRPERLNSFNDEMHAQLAECLKQVERDDTIRCLLLTGAGRGFCAGQDLNDRNVDPTGPAPDLGMSVERFYNPLVRRLAKLPKPVICAVNGVAAGAGATLALGGDIVIAARSAKFVMAFSKLGLIPDCGGTWLLPRVAGRARAMGLALLGNQLSAEQAHEWGMIWQVVDDETLADTAQQLARHLATQPTFGLGLIKQAINSAETNTLDTQLDLERDYQRLAGRSADYREGVSAFLAKRSPQFTGK	4.04 h											
MRTVKVFEEAWPLHTPFVIARGSRSEARVVVVELEEEGIKGTGECTPYPRYGESDASVMAQIMSVVPQLEKGLTREELQKILPAGAARNALDCALWDLAARRQQQSLADLIGITLPETVITAQTVVIGTPDQMANSASTLWQAGAKLLKVKLDNHLISERMVAIRTAVPDATLIVDANESWRAEGLAARCQLLADLGVAMLEQPLPAQDDAALENFIHPLPICADESCHTRSNLKALKGRYEMVNIKLDKTGGLTEALALATEARAQGFSLMLGCMLCTSRAISAALPLVPQVSFADLDGPTWLAVDVEPALQFTTGELHL				5.93 ± 1.4 h	4.33 ± 0.052 h	2.73 ± 0.18 h	6.31 ± 1.1 h	9.313 ± 0.054 h	4.81 ± 0.22 h	11.2 ± 2.8 h	5.54 ± 0.5 h	12.119 ± 0.011 h
MAVQKNVIKGILAGTFALMLSGCVTVPDAIKGSSPTPQQDLVRVMSAPQLYVGQEARFGGKVVAVQNQQGKTRLEIATVPLDSGARPTLGEPSRGRIYADVNGFLDPVDFRGQLVTVVGPITGAVDGKIGNTPYKFMVMQVTGYKRWHLTQQVIMPPQPIDPWFYGGRGWPYGYGGWGWYNPGPARVQTVVTE [P0AA91]	6.07 ± 0.61 h	6.3 ± 0.12 h	6.13 ± 0.12 h	6.532 ± 0.04 h	5.76 ± 0.071 h	3.01 ± 0.17 h	6.05 ± 0.21 h	10.7 ± 2.4 h	6.52 ± 0.45 h	13.7 ± 1.7 h	6.13 ± 0.1 h	
MPLIIVVAGIALLLLLTIKIKLNTFVSLIIVSIAVAIASGMDLSKVVTSVESGLGGTLGHIGLIFGFGVMLGRLLADAGGAQRIALTMLNYFGKNKLDWAVVCSAFIVGIALFFEVGLILLVPILFAIAREAKISPMFMCVPMLSGLLVAHGFLPPHPGPTVIAREYGADVGLVLIYGIIVGIPTFILCGPVLNKFCQRIIPDAFKKEGNIASLGATRRFSESEMPGFGISFLTAMLPVILMAVVTIIQMTHAKSAADSGLFYNVILFLGNSTIAMLISLLFAIYTMGLGRGKTIPDLMDSCGKAIAGIAGLLLIIGGGGAFKQVLIDSGVGQYISTLVSGMDINPILMAWGVAAFLRICLGSATVAAISTAGLVIPLLAVHPNTNLALITLATGAGSCICSHVNDASFWMIKDFFGLTTKETLLSWTLMSTLLSISGLIFILLASLVL					6.77 h	3.22 h						
MNFHHLAYWQDKALSLAIENRLFINGEYTAAAENETFETVDPVTQAPLAKIARGKSVDIDRAMSAARGVFERGDWSLSSPAKRKAVLNKLADLMEAHAEELALLETLDTGKPIRHSLRDDIPGAARAIRWYAEAIDKVYGEVATTSSHELAMIVREPVGVIAAIVPWNFPLLLTCWKLGPALAAGNSVILKPSEKSPLSAIRLAGLAKEAGLPDGVLNVVTGFGHEAGQALSRHNDIDAIAFTGSTRTGKQLLKDAGDSNMKRVWLEAGGKSANIVFADCPDLQQAASATAAGIFYNQGQVCIAGTRLLLEESIADEFLALLKQQAQNWQPGHPLDPATTMGTLIDCAHADSVHSFIREGESKGQLLLDGRNAGLAAAIGPTIFVDVDPNASLSREEIFGPVLVVTRFTSEEQALQLANDSQYGLGAAVWTRDLSRAHRMSRRLKAGSVFVNNYNDGDMTVPFGGYKQSGNGRDKSLHALEKFTELKTIWISLEA	3.96 ± 0.66 h	> 8 h	1.03 ± 0.13 h		1.11 ± 0.082 h	2.68 ± 0.027 h	2.8 ± 0.14 h	3.22 ± 0.67 h	1.43 ± 0.29 h	1.48 h	4.1373 ± 0.0017 h	6.22 ± 0.066 h
MKRQKRDRLERAHQRGYQAGIAGRSKEMCPYQTLNQRSQWLGGWREAMADRVVMA [P0AFW2]	0.535 h	0.588 h	0.382 h	0.441 h	0.472 ± 0.2 h		0.0712 h	0.0514 ± 0.073 h	0.352 h	0.686 ± 0.26 h		1.16 h
